Data from the nanobody polyreactivity screen of Harvey et al. (2022).

Test: yeast display, Sf9 membrane polyspecificity reagent, FACS + sequencing; frameworks hold sequencing errors
Procedure, shortened: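 A synthetic nanobody library was expressed on Saccharomyces cerevisiae BJ5465 by galactose induction for 36–48 hours. The library was stained for 1 hour at 4 °C with 10% biotinylated, detergent-solubilized Sf9 membrane reagent and enriched with streptavidin microbeads before FACS. Low and high (top ~1%) gates were set on anti-HA fluorescence for expression and streptavidin fluorescence for reagent binding, and each polyreactivity label reflects the gate of origin.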

Row | Sequence | polyreactivity (PSR sort gate)
1 | QVQLVESGGGLVQAGGSLRLSCAASGLTFWYYDMGWYRQAPGKERELVAAISRCGGTTYYADSVKGRFTISRDNAKNSVYLQMNSLKPEDTAVYYCAAVSFGFWVTEYYYWGQGTQVNVSS | high polyreactivity
2 | QVQLVESGGGLVQAGGSLRLSCAASGLTFYGYGMGWYRQAPGKERELVASITSGGNTYYADSVKGRFTISRDNAKNTVYLKMNSLKPEDTAVYYCAVTAIALYYSSGYYWGQGTQVTVSS | low polyreactivity
3 | QVQLVESGGGLVQAGGSLRLSCAASGLTFYHYAMGWYRQAPGIERELVAAISYSGSRTYYADSVKGRFTISRDTAKNTVYLQMNSLKPEVTAVYYCAAKRTKEYDYWGQGTQVTVSS | high polyreactivity
4 | QVQLVESGGGLVQAGGSLRLSCAASGLTFYHYHMGWYRQAPGKERELVAAITIGGSTYYADSVKGRFTISRDNAKNTVYLQMNSLKPEDTEVYYCAAEPQRDSSGLDYWGQGTQVTVSS | low polyreactivity
5 | QVQLVESGGGLVQAGGSLRLSCAASGLTFYIYAMGWSRQAPGKERELVAGISWIGGRTYYADSVKGRFTISRDNAKNTVYLQLNSLKPEDTAVYYCIAYLSYTSRGRYYKYDYWGQGTQVTVSS | high polyreactivity
6 | QVQLVESGGGLVQAGGSLRLSCAASGLTFYIYAMGWYRQAPGKEREFVAAIRRSDARTYYADSVKGRFTISRDNAKNTVYLQMNSLKPEDTAVYYCARPPWFTGYNSGYWGQGTQVTVSS | high polyreactivity
7 | QVQLVESGGGLVQAGGSLRLSCAASGLTFYIYAMGWYSQAPGKERELVAAVSNGGGNTYYADSVKGRCTISRDNAKNTVYLQMNSLKPEDTAVYYCAAKNDYVYPINPLYYYWGQGTQVTVSS | high polyreactivity
8 | QVQLVESGGGLVQAGGSLRLSCAASGLTFYLYAMGWNRQAPGKERELVAAINSRGGNTYYADSVKGRFTISRDNAKNTVYLQMNSLKPEDTAVYYCNAGRTFYSYAYGYWGQGTQVTVSS | high polyreactivity
9 | QVQLVESGGGLVQAGGSLRLSCAASGLTFYPNAMGWYRQAPGKEREFVASISISGRTYYADSVKGRFTISRDNAKNTVYLQMNSLKPEDTAVYYCAARYVRSGLYRKYDYWGQGTQVTVSS | high polyreactivity
10 | QVQLVESGGGLVQAGGSLRLSCAASGLTFYQYAMGWSRQAPGKERELVAAISKSAGSTYYADSVKGRFTISRDNAKNTVYLQMNSLKPEDTAVYYCAARVLRLRYDYWGQGTQVTVSS | high polyreactivity
11 | QVQLVESGGGLVQAGGSLRLSCAASGLTFYSNAMGWYRQAPGKERELVARISTGGSTYADSEKGRFTISRDNAKNTVYLQMNSLKPEDTSFFYCAKLPPRGIDDEYWGQGTQVTVSS | low polyreactivity
12 | QVQLVESGGGLVQAGGSLRLSCAASGLTFYSYAMGWYRQAPGKERELVAAITSSDGSTYYADSVKGRFTISRDNAKNTVYLQMNSLKPEDTAVYYCNKDDNSYGLNYWGQGTQVTVSS | low polyreactivity
13 | QVQLVESGGGLVQAGGSLRLSCAASGLTFYSYARGWYRQAPGKERELVATISGGGSTTYADSVKGRFTISRDNAKNTVYLQMNSLKPEDTAVYYCAAGYFLPVVWSTTNYIYDYWGQGTQVTVSS | high polyreactivity
14 | QVQLVESGGGLVQAGGSLRLSCAASGLTFYTYAMGWYRQAPGKERELVAAISTNGGSTYADSVKGRFTISRDNAKNTVYLQMNSLKPEDTAVYYCAAVYRTTRYGYWGQGTQVTVSS | low polyreactivity
15 | QVQLVESGGGLVQAGGSLRLSCAASGLTFYVYAMGWYRQAPGKERELVAAINWSGGNTYYADSVKGRFTISRDNAKNTVYLQMNSLKPEDTAVYYCAAELYYPVGFDYWGQGTQVTVSS | high polyreactivity
16 | QVQLVESGGGLVQAGGSLRLSCAASGLTFYVYAMGWYRQAPGKERELVAAISSGGRTYYADSVKGRFTISRDNAKNTVYLQMNSLKPEDTAVYYCAAVRHRNYWGQGTQVTVSS | high polyreactivity
17 | QVQLVESGGGLVQAGGSLRLSCAASGLTFYWYVMGWYRQAPGKERELVAAITGGGSSTYYADSVKGRFTISRDNAKNTVYLQMNSLKPEDTAVYYCAADYRGGIRYYRGAAYNYWGQGTQVTVSS | high polyreactivity
18 | QVQLVESGGGLVQAGGSLRLSCAASGLTFYYYAMGWYRQAPGKERELVATITSSGARTYYADSVKGRFTISRDNAKNTVYLQMNSLKPEDTEVYYCAADYGIWQRGSHYWDMDYWGQGTQVTVSS | high polyreactivity
19 | QVQLVESGGGLVQAGGSLRLSCAASGLTFYYYDMGWYRQAPGKERELVAAITSGGSSTYYADSVKGRITISRDNAKNTVYLQMNSLKPEDTAVYYCNADSPYIPYIYDYWGQGTQVTVSS | low polyreactivity
20 | QVQLVESGGGLVQAGGSLRLSCAASGLTFYYYVMGWYRQAPGKERELVAAINATGGRTYYADSVKGRFTISRDNAKNTVYLQMNSLKPEDTAVYYCAAYSGFYASYDYWGQGTLVTVSS | low polyreactivity
21 | QVQLVESGGGLVQAGGSLRLSCAASGLTIFVNAMGCYRQAPGKERELVATISGGGSTYYADSVKGRFTISRDNAKNTVYLQMNSLKPEDTAVYYCNADVLFYTYYTRGRFDFDYWGQGTQVTVSS | low polyreactivity
22 | QVQLVESGGGLVQAGGSLRLSCAASGLTIGYYAMGWYRQAPGKERELVATITWRGVRTYYADSVKGRFTISRDNAKNTVYLQMNSLKPEDTAVYYCDKGYWSKGERWFGGFGYWGQGTQVTVSS | low polyreactivity

Row | Sequence | polyreactivity (PSR sort gate)
23 | QVQLVESGGGLVQAGGSLRLSCAASGLTINGNTMGLYRQAPGKERELVAVIDWSGGSTYYADSVKGRFTISRDNAKNTVYLQMNSLKPEDTAVYYCNAETRDPILYGEYDYWGQGTQVTVSS | low polyreactivity
24 | QVQLVESGGGLVQAGGSLRLSCAASGLTIQRNDMGWYRQAPGKEREFVATITSNAGSTYYADSVKGRFTISRDNAKNTVYLQMNSLKPEDTAVYYCARERWWGDGYWGQGTQVTVSS | high polyreactivity
25 | QVQLVESGGGLVQAGGSLRLSCAASGLTIWANTKGWYRQAPGKERELVAAISLSDGSTYYADSVKGRFTISRDNAKNTVYVQMNSLKPEDTAVYYCAARVQHYLATDDYWGQGTQVTVSS | low polyreactivity
26 | QVQLVESGGGLVQAGGSLRLSCAASGLTIYHYAMGWYRQAPGKERELVAAISWNGGSTYYADSVKGRFTISRDNAKNTVYLQMNSLKPEDTAVYYCAVVFNPHRYTGVLAGYDYWGQGTQVTVSS | high polyreactivity
27 | QVQLVESGGGLVQAGGSLRLSCAASGLTLAWYAMGWYRQAPGKERELVAAISWSGDSTYYADSVKGRFTISRDNAKNTVYLQMNSLKPEDTEVYYCATRVYGGYGYWGQGTQVTVSS | high polyreactivity
28 | QVQLVESGGGLVQAGGSLRLSCAASGLTLEGYVMGWYRQAPGKERELVAAISRRGASTYYADSVKGRFTISRDNAKNTVYLQMNSLKTEDTAVYYCAAYGAYNNYRGQTSLGYGYDSWGQGTQVTVSS | high polyreactivity
29 | QVQLVESGGGLVQAGGSLRLSCAASGLTLGHNAMGWYRQAPGKERELVAAITNYADSVKGRFTISRDNAKNTVYLQMNSLKPEDTAVYYCAADWWRVEMDYWGQGTQVTVSS | low polyreactivity
30 | QVQLVESGGGLVQAGGSLRLSCAASGLTLQGYVMGWSRQAPGKERELVAAISTGGSTHYADSVKGRFTISRDNAKNTVYLQMNSLKPEDTAVYYCAAGWVLWFRDPQGRASYYWGQGTQVTVSS | high polyreactivity
31 | QVQLVESGGGLVQAGGSLRLSCAASGLTLRRYAMGWYIQAPGKERELVASINSGTSTKYADSVKGRFTISRDNAKNTVYLQMKSLKPEDTALYYCGAAVYFPTAGSRRAYYYWGQGTQGTVSS | high polyreactivity
32 | QVQLVESGGGLVQAGGSLRLSCAASGLTLRYYVMGWNSQAPGKERELVAAISSGGGSTYYADSVKGRFTISRDNAKNTVYLQMNSRKPEDTAVYYCAADSVSRYNGYDYWGQGTQVTVSS | high polyreactivity
33 | QVQLVESGGGLVQAGGSLRLSCAASGLTLSYNAMGWYRPAPGKERELVAAIRSGGSTNYADAVKGRFTISRDNANNTVYLQMNSLKPEDTAVYYCAARCRYLPYRDGRYQSGYEYWGQGTQVTVSS | high polyreactivity
34 | QVQLVESGGGLVQAGGSLRLSCAASGLTLTYYPMGLYRQAPGKERELVAAISSSGGSTYYADSVKGRFTISRDNAKNTVYLQMNSLKPEDSAVYDCAATRVSWTGRDDYWGQGTQVTVSS | high polyreactivity
35 | QVQLVESGGGLVQAGGSLRLSCAASGLTLYYYAMGWYRQAPGKERELVAAMSYSGGSTYYADSVKGRFTISRDNAKNPVYLQMNSVKPEDTAVYYCAAVGDSDIRDEYWGQGTQVTVSS | low polyreactivity
36 | QVQLVESGGGLVQAGGSLRLSCAASGLTSEGNAMGWYRQAPGKERELVAAIDYRGGSTYYADSVKGRFTISRDNAKNSVYLQMNSLKPEDTAVYYCAADYPRGYIDDGDYWGQGTQVTVSS | low polyreactivity
37 | QVQLVESGGGLVQAGGSLRLSCAASGLTSVSNAMGWYRPAPGKERELVAAISSRGGITYYADSVKGRFTISRDNAKNTVYLQMNSLKPEDTAVYYCAKKTVQRGYYYWGQGTQVTVSS | high polyreactivity
38 | QVQLVESGGGLVQAGGSLRLSCAASGLTSWYNAMGWYRQAPGKEREFVAAISFSGGRTFYADSVKGRFTISRDNAKKTVYLQMNSLKPEDTAGYYCNADVYGFDYWGQGTQVTVSS | high polyreactivity
39 | QVQLVESGGGLVQAGGSLRLSCAASGLTSYFYDMGWYRQAPGKERELVAAIRASAARTYYADTVKGRFTISRDNAKNTVYLQMNSLKPEDTAVYSCAARYGYWRQFRWKYDYWGHGTQVTVSS | high polyreactivity
40 | QVQLVESGGGLVQAGGSLRLSCAASGLTSYSYAMGWYRPAPGKERELVAAITVNGGRTYYADSVKGRFTISRDNAKNTVYLQMNSLKPEDTAVYYCAAREVTGRPRSYYYWGQGTQVTVSS | low polyreactivity
41 | QVQLVESGGGLVQAGGSLRLSCAASGMIFADYVMGWYRQAPGKERELVATINQGGGSTYYADSVKGRFTISRDNAKNTVYLQMNSLKPEDTAVYYCAATWALLYAIFESYDYWGQGTQVTVSS | low polyreactivity
42 | QVQLVESGGGLVQAGGSLRLSCAASGMIFFNYYAMGWYRQAPGKESELVAAIRYGGGSTYYADSVKGRFTISRDNGKNTVYLQMNSLKPEDTAVYYCAARFKGYYRYGYWGQGTQVTVSS | high polyreactivity
43 | QVQLVESGGGLVQAGGSLRLSCAASGMIFPGNTMGWYRQAPGKERELVAAITNGVSTNYADSVKGRFTISRDNAKNTVYLQMNSLKPEDTAVYYCNGPFNYVGGYSNYSGFVYWGQGTQVTVSS | high polyreactivity
